Data: article PMC10522489, “Eukaryotic-like gephyrin and cognate membrane receptor coordinate corynebacterial cell division and polar elongation” (Nature Microbiology, 2023)

B1: Glp (gephyrin-like protein, Cgl0883), untagged (natural protein, Corynebacterium glutamicum ATCC13032, UniProt Q8NS03 1-419, looked up)
chain: MRSVEQQLSIVTEAAVAPEPVRIAIAEALGLMCAEEVQASRALPGFAQAAIDGYAVRAVDVGGEKSLSQQLPVAPPEKSLPVVGEVAAGSQQPLRLQPKQAVMVHTGAPLPMLADAVLPMAWSDRGRKRVTAQRPVRSGEFVRKEGDDIQPGDIAVSAGAVLGPAQIGLLAAVGRSKVLVYPRPRMSVISVGAELVDIDRQPGLGQVYDVNSYSLAAAGREAGADVYRYGIAAGEPRRIKEIIESQMLRSEIIVITGAVGGAGSAGVRQVLNELGDIDTERVAMHPGSVQGFGLLGENKIPCFLLPSNPVASLVIFETFVRPVVRMSLGKSNAARRVVRARALNHVVSVAGRKGFIRSRLMRDAETQDYLVEALGGATGAPSHLLAGLSEANGMIRIPEDVTEIRPGDVVDVIFLAQGR
notes: Glp (gephyrin-like protein, annotated molybdopterin molybdotransferase MoeA), Corynebacterium glutamicum ATCC13032, locus Cgl0883; Homodimer in the crystal structures; Called 'untagged Glp' in the BLI on GlpR; also called gephyrin-like repurposed molybdotransferase; MoeA paralogue; source: E. coli BL21 (DE3), purified (Ni-NTA, SUMO protease, SEC); not shown: His6, N-terminal, cleaved; SUMO, …
B2: GlpR (Glp receptor, Cgl0885), C-terminal His tag (receptor, Corynebacterium glutamicum ATCC13032, UniProt Q8NS01 1-340, looked up)
chain: MLHVSGILVIGLIVVVWLVVLAPLLLRGQKPIAKAGEAFDDTRVISEGGSNIPSPRRPGLSSAQLDDEEDTDDVDDDYEIVDSPSIFRPRKEEPVEEDLDTDVELEEDIEVSLETDDYVEPAPVVEVSQEWNVEDHYELDDSYDTPLDHLHPAARARAYEDFQEHQPEQQPEVEEFDADDELTEEDVAFAQRRRGRGYYDPEADREFAASQYVRRQRTLLGLAATVVISVILGFVFGGWVWGLPAVALAATALYLMALRSQVREENALRARRIRRLRRSRMGVRNSEDLPSRLRRPGAVVLELDDESPDFEGLPTVAMPEEPYYEEPRRNIRHLGQRRVS
notes: GlpR, integral membrane protein with 3 predicted transmembrane helices, Corynebacterium glutamicum ATCC13032, locus Cgl0885; In 0.05% DDM; also called C-terminal His-tagged GlpR; immobilized GlpR; source: E. coli BL21 (DE3), purified from membranes in DDM (Ni-NTA, SEC); not shown: His6, C-terminal, kept
B3: FtsZCTD peptide (peptide)
peptide: DDLDVPSFLQ
notes: C-terminal 10 residues of FtsZ, Corynebacterium glutamicum; also called 10-residue peptide FtsZCTD; C-terminal domain of FtsZ; source: synthetic peptide, bought: Genosphere

Assays:
[1] = target: Biotinylated His-GlpR (Corynebacterium glutamicum ATCC13032); assay: BLI; biotinylated GlpR immobilised on streptavidin biosensors; Wag31 1-61 (DivIVA) 200–3.15 μM in buffer B (25 mM HEPES pH 7.5, 150 mM NaCl, 10% glycerol, 0.05% DDM, 1 mg/ml BSA); 25 °C; apparent Kd from steady-state fit, one-site model
[2] = target: Biotinylated His-GlpR (Corynebacterium glutamicum ATCC13032); assay: BLI; biotinylated GlpR immobilised on streptavidin biosensors; Wag31 150–2.34 μM in buffer A (20 mM HEPES pH 8.5, 150 mM NaCl, DDM 0.05%); 25 °C; apparent Kd from steady-state fit, one-site model
His-SUMO-FtsZ = target: T1, His-SUMO-FtsZ (Corynebacterium glutamicum, UniProt P94337 1-442); assay: BLI; His-SUMO-FtsZ immobilised on Ni-NTA biosensors; Glp 80–1.25 μM in 2-fold dilutions; polymerization buffer (25 mM Pipes pH 6.9, 100 mM KCl, 10 mM MgCl2); 25 °C; apparent Kd from steady-state fit, one-site model; conditions: both partners purified
T1 construct: FtsZ, tubulin-like cell division protein, Corynebacterium glutamicum; Captured on Ni-NTA biosensors; also called 6xHis-SUMO-FtsZ; immobilized SUMO-FtsZ; source: E. coli BL21 (DE3), purified (Ni-NTA, SEC); not shown: His6, N-terminal, kept; SUMO, N-terminal, kept
T1 sequence (looked up): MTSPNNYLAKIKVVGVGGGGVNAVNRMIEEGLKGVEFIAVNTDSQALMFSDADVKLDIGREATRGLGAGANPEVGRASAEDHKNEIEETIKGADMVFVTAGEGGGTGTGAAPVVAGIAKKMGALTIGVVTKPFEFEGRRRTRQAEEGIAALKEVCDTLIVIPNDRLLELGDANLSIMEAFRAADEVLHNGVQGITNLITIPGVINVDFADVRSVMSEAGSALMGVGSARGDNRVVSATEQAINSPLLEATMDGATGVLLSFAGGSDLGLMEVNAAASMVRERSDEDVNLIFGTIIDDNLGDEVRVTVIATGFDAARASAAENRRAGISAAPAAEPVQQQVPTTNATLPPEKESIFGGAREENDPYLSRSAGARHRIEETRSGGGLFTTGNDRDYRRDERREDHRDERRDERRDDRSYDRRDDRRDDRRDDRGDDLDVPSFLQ

[3] = target: the molecule itself; assay: crystal structure; 0.34 mM Glp with 1.7 mM FtsZCTD peptide; 0.1 M NaCl, 0.1 M Bis-Tris pH 6.5, 1.5 M (NH4)2SO4; 2.7 Å
[4] = target: B1; assay: BLI; C-terminal His-tagged GlpR immobilised on Ni-NTA biosensors; untagged Glp variants (Glp 100–1.56 nM) in 25 mM HEPES pH 7.5, 150 mM NaCl, 10% glycerol, 0.05% DDM, 1 mg/ml BSA; 25 °C; apparent Kd from steady-state fit; conditions: both partners purified
[5] = target: B1; assay: differential scanning fluorescence (thermofluor); Glp 3 μg in 25 mM HEPES pH 8, 150 mM NaCl, 5% glycerol with or without 1 mM FtsZCTD; Sypro Orange; 25 to 95 °C; conditions: both partners purified

Molecule: Wag31_(1–61) (N-terminal DivIVA domain of Wag31) (domain or fragment)
- Kd [1]: 14.9 µM

Molecule: Wag31, full length (natural protein)
- Kd [2]: 43.4 µM

Molecule: B1
- Kd (His-SUMO-FtsZ): 4.7 ± 0.77 µM
- stoichiometry N [3]: 2

Molecule: B2
- Kd [4]: 0.0055 ± 0.00075 µM

Molecule: B3
- Tm shift of Glp [5]: 2 °C
